In US20170137509A1 (AFFIRIS, published 2017):
One block for each binder: values may come before it.

Key:
full length Opn (flOpn) = target: T1, full length Opn (flOpn) (human, UniProt P10451 17-314); assay: ELISA on plates coated with recombinant human Opn, HRP anti-mouse IgG, OD 405 nm
T1 construct: Recombinant, expressed in HEK293 c18 cells as 'Strep-314 AA (full length Opn)-6xHis'; ELISA and Western blot also used PeproTech Cat#120-35 as control, and Western lanes 1-4 hold full length Opn proteins with different tag systems; also called Strep-314 AA (full length Opn)-6xHis; full length osteopontin; not shown: N-terminal OneStrep-tag
Experimental: (§1) ELISA plates (Nunc, Cat#439454) were coated with 1 μg/ml recombinant human Opn proteins (home-made or from PeproTech, Cat#120-35 as control) in 100 mM NaHCO3 pH=9,2 and blocked with 1% BSA in 1×PBS. Bound mouse anti-human monoclonal antibodies (BioGenes, 1 μg/ml) and the mouse serum used as positive control were detected using a HRP-conjugated goat anti-mouse IgG antibody ([…], Cat#115-035-068, 0.2 μg/ml). ABTS (0.68 mM ABTS in 0.1 M citric acid, pH=4.3) and 0.1% hydrogen peroxide was used as a substrate for the horse radish peroxidase (HRP). The substrate reaction was stopped by adding 1% SDS solution to the wells. The absorbance was read at 405 nm using a microplate reader (TECAN Sunrise).

[1] = target: T2, matrix-metalloproteinase-truncated Opn (MmpOpn) (human, UniProt P10451 17-166, limits assumed); assay: as above
T2 construct: Recombinant, expressed in HEK293 c18 cells; stop codon after 166 AA; also called 1-Opn-166; 6xHis-166 AA (N-terminal MMP-cleaved Opn)
Experimental: as §1

[2] = target: T3, biotinylated peptide ligand representing ThrOpn (SPR); assay: SPR (Biacore 2000), biotinylated peptide on streptavidin chip, mAb injected at 2 ug/ml
Experimental: (§2) Binding analyses were performed on a Biacore 2000. The different biotinylated peptide ligands representing the different Opn products were immobilized on a streptavidin chip in one flow cell respectively, with a flow rate of 30 μl/min. The fourth flow cell is a reference cell without peptide. The peptides were dissolved in a DMSO solution and further diluted in HBS buffer (0.01M Hepes, 0.1M NaCl, 0.004M EDTA, 0.05% P20, pH=7.4). After immobilization, the chips in each flow cell were saturated with 1 μM D-Biotin. As a control, an unspecific serum was injected through all cells. The flow rate of the antibodies was 30 μl/min at a concentration of 2 μg/ml, volume injected 100 μl. The dissociation time was set at 500 sec. The chips were regenerated with 60 μl of 50 mM HCl. Off-rate values and KD values were calculated using the Biocore SPR software.
(§3) In order to define the binding strength of selected mAbs against their individual targets SPR analysis was performed using peptides representing the different Opn products. […] Thus in a situation where multiple washing steps are included (e.g. in the used functional cell based adhesion assay) the antibody will be washed away from its target. […] In a more physiological situation where antibody persistence is not influenced by steps depleting the antibody, mAb 4-4-2 is expected also display functional activity.

[3] = target: T4, biotinylated peptide ligand representing MmpOpn (SPR); assay: SPR (Biacore 2000), biotinylated peptide on streptavidin chip, mAb injected at 2 ug/ml; one value printed for 'ThrOpn and MmpOpn'
[4] = target: T3, biotinylated peptide ligand …; assay: as above
[5] = target: T4, biotinylated peptide ligand …; assay: SPR (Biacore 2000), biotinylated peptide on streptavidin chip, mAb injected at 2 ug/ml
Experimental: as §2, §3

T1 sequence (P10451 other isoform, or with tags, fused parts or gaps): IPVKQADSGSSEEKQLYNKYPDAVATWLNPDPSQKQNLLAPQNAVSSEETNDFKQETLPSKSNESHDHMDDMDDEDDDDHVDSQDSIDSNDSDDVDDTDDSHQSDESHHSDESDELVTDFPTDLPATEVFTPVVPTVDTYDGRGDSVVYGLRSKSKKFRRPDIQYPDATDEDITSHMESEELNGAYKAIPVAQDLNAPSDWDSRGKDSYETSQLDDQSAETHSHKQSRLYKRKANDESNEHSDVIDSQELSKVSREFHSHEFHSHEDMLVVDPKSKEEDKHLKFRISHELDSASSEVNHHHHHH
T2 sequence (P10451 other isoform, or with tags, fused parts or gaps limits assumed): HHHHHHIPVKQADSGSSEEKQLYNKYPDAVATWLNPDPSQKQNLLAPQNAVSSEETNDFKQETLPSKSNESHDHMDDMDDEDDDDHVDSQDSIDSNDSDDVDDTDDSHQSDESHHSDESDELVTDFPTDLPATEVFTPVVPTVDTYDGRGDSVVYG

B1: mAb 4-4-2 (antibody, V domains shown)
VH: QVTLKESGPGILQPSQTLSLTCSFSGFSLSTYGLGVSWIRQPSGKGLEWLAHIYWDDNKRYKSSLKSRLTISKDTSSNQVFLKITSVDTADTATYYCARGTSPGVSFPYWGQGTLVTVSA
VL: DIQMTQSPASLSASVGETVTITCRASENIYSYLAWYQQKQGKSPQFLVYNAKTLAEGVPSRFSGSGSGTQFSLKINSLQPEDFGSYYCQHHYGTPLTFGAGTKLELKR
notes: also called Monoclonal Ab 4-4-2
binding result (full length Opn (flOpn)): no binding (tested: 1,00 µg/ml) | binding result [1]: no binding (tested: 1,00 µg/ml) | Kd [2]: 13900 pM | koff [2]: 0.00279 s⁻¹

B2: mAb 21-5-4 (antibody, V domains shown)
VH: QVTLKESGPGMLKPSQTLSLTCSFSGFSLSTSGLGIGWIRQPSGKGLEWLAHISWDDSKYYNPSLKNRLTISKDTSRNQVFLKITNVGTADSATYFCARSGGGDSDWGQGTLVTVSA
VL: ANVLTQSPAIMSASPGEKVTMTCSANSSVNSIHWYQQKSSTSPKLWIYDTSKLASGVPGRFSGSGSGDSYSLTISSMEAEDVATYYCFQGSGYPLTFGGGTKLEIKR
notes: also called 21-5-4 mAb; Monoclonal Ab 21-5-4
Kd [3]: 840 pM | koff [3]: 1e-05 s⁻¹ | Kd [4]: 840 pM | koff [4]: 1e-05 s⁻¹

More lines, now with the values ahead:

binding result (full length Opn (flOpn)): no binding (tested: 1,00 µg/ml) | Kd [5]: 1120 pM | koff [5]: 8.89e-05 s⁻¹
B3: mAb 7-5-4 (antibody, V domains shown)
VH: EVQLVETGGGLVQPKGALRLSCAVSGITFNTNGMNWVRQAPGRGLEWVARVRSKDYNFATYYADSVKDRFTISRDDSQSMLYLQMNNLRTEDTAMYYCVRPDYYGSSFAYWGQGTLVSVSA
VL: DVLMTQTPLSLPVSLGDQASISCRSSQSIVHSNGNTYLEWYLQKPGQSPKLLIYKVSNRFFGVPDRFSGSGSGTDFTLKISRVEAEDLGVYYCFQGSHVPWTFGGGTKLEIKR
notes: also called Monoclonal Ab 7-5-4

binding result (full length Opn (flOpn)): no binding (tested: 1,00 µg/ml) | Kd [5]: 970 pM | koff [5]: 8.79e-05 s⁻¹
B4: mAb 9-3-1 (antibody, IgG1, V domains shown)
VH: B3 VH
VL: B3 VL
notes: tested as a separate clone; also called mAb CMI 9-3
